Blank lines part the entries; values can stand above or below the substance they belong to.
Key:
Assay in all cases: SEC; size exclusion chromatography of the purified six-His-tagged recombinant proteins; data not shown; conditions not given
[1] = target: Schistosoma mansoni phytochelatin synthase, N- and C-truncated form (PCS66-300) (Schistosoma mansoni)
[2] = target: Schistosoma mansoni phytochelatin synthase, N-truncated protein (PCS66-591) (Schistosoma mansoni)
[3] = target: Schistosoma mansoni phytochelatin synthase, full length protein (PCS1-591) (Schistosoma mansoni)

stoichiometry N [1]: 2
Substance: Schistosoma mansoni phytochelatin synthase, N- and C-truncated form (PCS66-300) (domain or fragment)

stoichiometry N [2]: 2
Substance: Schistosoma mansoni phytochelatin synthase, N-truncated protein (PCS66-591) (domain or fragment)

stoichiometry N [3]: 2
Substance: Schistosoma mansoni phytochelatin synthase, full length protein (PCS1-591) (enzyme)

Reference: PMC3561135
